Results reported in PMC3516615 (Structure (London, England : 1993), 2012).
Substitutions are numbered along the chain they refer to. Numbers in names are those of the source. Read-outs that look alike come from different tables or passages of the source. Values belong to the binder of their own block, whether it stands above or below them.

Legend:
[1] = target: EphA2, full length, R950T, expressed in U87 cells (human, UniProt P29317 24-976, R950T); assay: co-IP
[2] = target: EphB2 SAM domain penta-mutant L954K/T959R/A961P/K966R/N969Y (human); assay: ITC
EphA2 SAM domain K956E = target: T1, EphA2 SAM domain K956E (human, UniProt P29317 897-976, K956E); assay: ITC
T1 sequence (looked up): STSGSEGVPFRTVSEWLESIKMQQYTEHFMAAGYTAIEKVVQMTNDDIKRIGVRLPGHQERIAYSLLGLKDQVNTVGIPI

[3] = target: T2, EphA2 SAM domain (wild type) (human, UniProt P29317 897-976); assay: ITC
T2 sequence (looked up): T1 sequence (looked up) with E60K

EphA2 SAM domain K956D = target: T3, EphA2 SAM domain K956D (human, UniProt P29317 897-976, K956D); assay: ITC
T3 sequence (looked up): T1 sequence (looked up) with E60D

EphA2 SAM domain K917D = target: T4, EphA2 SAM domain K917D (human, UniProt P29317 897-976, K917D); assay: ITC
T4 sequence (looked up): T1 sequence (looked up) with K21D, E60K

EphA2 SAM domain R950T = target: T5, EphA2 SAM domain R950T (human, UniProt P29317 897-976, R950T); assay: ITC
T5 sequence (looked up): T1 sequence (looked up) with R54T, E60K

[4] = target: T2, EphA2 SAM domain (wild type); assay: NMR titration
[5] = target: T6, EphA2 SAM domain K945L/Y960N (human, UniProt P29317 897-976, K945L | Y960N); assay: ITC
T6 sequence (looked up): T1 sequence (looked up) with K49L, E60K, Y64N

EphA2 SAM domain Y960N = target: T7, EphA2 SAM domain Y960N (human, UniProt P29317 897-976, Y960N); assay: ITC
T7 sequence (looked up): T1 sequence (looked up) with E60K, Y64N

EphA2 SAM domain R950E = target: T8, EphA2 SAM domain R950E (human, UniProt P29317 897-976, R950E); assay: ITC
T8 sequence (looked up): T1 sequence (looked up) with R54E, E60K

EphA2 SAM domain K945L = target: T9, EphA2 SAM domain K945L (human, UniProt P29317 897-976, K945L); assay: ITC
T9 sequence (looked up): T1 sequence (looked up) with K49L, E60K

EphA1 SAM domain = target: T10, EphA1 SAM domain (human, UniProt P21709 906-976); assay: ITC
T10 sequence (looked up): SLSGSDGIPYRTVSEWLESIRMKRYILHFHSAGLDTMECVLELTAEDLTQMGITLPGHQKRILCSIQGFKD

EphA2 SAM domain K917E = target: T11, EphA2 SAM domain K917E (human, UniProt P29317 897-976, K917E); assay: ITC
T11 sequence (looked up): T1 sequence (looked up) with K21E, E60K

[6] = target: T2, EphA2 SAM domain (wild type); assay: ITC; remark: listed apart in the source
[7] = target: T2, EphA2 SAM domain (wild type); assay: ITC; remark: listed apart in the source

B1: SHIP2 (SH2-linked inositol phosphatase 2), endogenous in U87 cells (enzyme, human (endogenous in U87), UniProt O15357 1-1258, looked up)
chain: MASACGAPGPGGALGSQAPSWYHRDLSRAAAEELLARAGRDGSFLVRDSESVAGAFALCVLYQKHVHTYRILPDGEDFLAVQTSQGVPVRRFQTLGELIGLYAQPNQGLVCALLLPVEGEREPDPPDDRDASDGEDEKPPLPPRSGSTSISAPTGPSSPLPAPETPTAPAAESAPNGLSTVSHDYLKGSYGLDLEAVRGGASHLPHLTRTLATSCRRLHSEVDKVLSGLEILSKVFDQQSSPMVTRLLQQQNLPQTGEQELESLVLKLSVLKDFLSGIQKKALKALQDMSSTAPPAPQPSTRKAKTIPVQAFEVKLDVTLGDLTKIGKSQKFTLSVDVEGGRLVLLRRQRDSQEDWTTFTHDRIRQLIKSQRVQNKLGVVFEKEKDRTQRKDFIFVSARKREAFCQLLQLMKNKHSKQDEPDMISVFIGTWNMGSVPPPKNVTSWFTSKGLGKTLDEVTVTIPHDIYVFGTQENSVGDREWLDLLRGGLKELTDLDYRPIAMQSLWNIKVAVLVKPEHENRISHVSTSSVKTGIANTLGNKGAVGVSFMFNGTSFGFVNCHLTSGNEKTARRNQNYLDILRLLSLGDRQLNAFDISLRFTHLFWFGDLNYRLDMDIQEILNYISRKEFEPLLRVDQLNLEREKHKVFLRFSEEEISFPPTYRYERGSRDTYAWHKQKPTGVRTNVPSWCDRILWKSYPETHIICNSYGCTDDIVTSDHSPVFGTFEVGVTSQFISKKGLSKTSDQAYIEFESIEAIVKTASRTKFFIEFYSTCLEEYKKSFENDAQSSDNINFLKVQWSSRQLPTLKPILADIEYLQDQHLLLTVKSMDGYESYGECVVALKSMIGSTAQQFLTFLSHRGEETGNIRGSMKVRVPTERLGTRERLYEWISIDKDEAGAKSKAPSVSRGSQEPRSGSRKPAFTEASCPLSRLFEEPEKPPPTGRPPAPPRAAPREEPLTPRLKPEGAPEPEGVAAPPPKNSFNNPAYYVLEGVPHQLLPPEPPSPARAPVPSATKNKVAITVPAPQLGHHRHPRVGEGSSSDEESGGTLPPPDFPPPPLPDSAIFLPPSLDPLPGPVVRGRGGAEARGPPPPKAHPRPPLPPGPSPASTFLGEVASGDDRSCSVLQMAKTLSEVDYAPAGPARSALLPGPLELQPPRGLPSDYGRPLSFPPPRIRESIQEDLAEEAPCLQGGRASGLGEAGMSAWLRAIGLERYEEGLVHNGWDDLEFLSDITEEDLEEAGVQDPAHKRLLLDTLQLSK
fold binding against wild type EphA2 [1]: ~2 fold

B2: SHIP2 SAM domain (wild type) (domain or fragment, human, UniProt O15357 1192-1258, looked up)
chain: RASGLGEAGMSAWLRAIGLERYEEGLVHNGWDDLEFLSDITEEDLEEAGVQDPAHKRLLLDTLQLSK
Kd [2]: 7.6 µM
Kd (EphA2 SAM domain K956E): > 50 µM
Kd [3]: 5.2 ± 1.2 µM
dH [3]: -10.5 kJ/mol
Kd (EphA2 SAM domain K956D): > 50 µM
Kd (EphA2 SAM domain K917D): 9.1 ± 5.7 µM
dH (EphA2 SAM domain K917D): -3.56 kJ/mol
fold enhancement of the interaction against the wild-type pair (EphA2 SAM domain R950T): ~4 fold
Kd [4]: ~10 µM
Kd [5]: 1.6 ± 0.6 µM
dH [5]: -8.37 kJ/mol
Kd (EphA2 SAM domain Y960N): 3.1 ± 0.4 µM
dH (EphA2 SAM domain Y960N): -12.6 kJ/mol
Kd (EphA2 SAM domain R950E): 1.7 ± 0.3 µM
dH (EphA2 SAM domain R950E): -10 kJ/mol
Kd (EphA2 SAM domain K945L): 1.3 ± 0.2 µM
dH (EphA2 SAM domain K945L): -8.79 kJ/mol
Kd (EphA1 SAM domain): 3.8 ± 0.4 µM
dH (EphA1 SAM domain): -15.1 kJ/mol

B4: SHIP2 SAM domain D1224K (domain or fragment, human, UniProt O15357 1192-1258, looked up)
chain: B2 chain with D33K
Kd (EphA2 SAM domain K917D): 10 ± 2 µM
dH (EphA2 SAM domain K917D): -10.5 kJ/mol

B6: SHIP2 SAM domain D1235K (domain or fragment, human, UniProt O15357 1192-1258, looked up)
chain: B2 chain with D44K
Kd (EphA2 SAM domain K956D): 7 ± 3 µM
dH (EphA2 SAM domain K956D): -3.35 kJ/mol

Next, values leading:

Kd (EphA2 SAM domain K917E): 15.4 ± 1.9 µM
dH (EphA2 SAM domain K917E): -8.37 kJ/mol
B3: SHIP2 SAM domain E1226K (domain or fragment, human, UniProt O15357 1192-1258, looked up)
chain: B2 chain with E35K

Kd (EphA2 SAM domain R950E): 1.3 ± 0.1 µM
dH (EphA2 SAM domain R950E): -20.9 kJ/mol
B5: SHIP2 SAM domain H1219R (domain or fragment, human, UniProt O15357 1192-1258, looked up)
chain: B2 chain with H28R

Kd [6]: 4 ± 0.4 µM
dH [6]: -23 kJ/mol
Kd (EphA2 SAM domain R950E): 11.2 ± 2.7 µM
dH (EphA2 SAM domain R950E): -31.4 kJ/mol
B7: SHIP2 SAM domain H1219E (domain or fragment, human, UniProt O15357 1192-1258, looked up)
chain: B2 chain with H28E

fold enhancement of the interaction against the wild-type pair [7]: ~4 fold
B8: SHIP2 SAM domain H1219S (domain or fragment, human, UniProt O15357 1192-1258, looked up)
chain: B2 chain with H28S
